Reference: US20260098080A1, “A MODIFIED PROTEIN SCAFFOLD AND USE THEREOF” (EVOLVERITAS BIOTECHNOLÓGIAI KORLÁTOLT FELELOSSÉGU TÁRSASÁG, priority 2022, published 2026)
Like-named read-outs stand apart in the source and are kept apart here. Bridges are numbered along the chain shown (N, C = ends). Where no end group is shown, it is not given here.

T1: MASP-1 (UniProt P48740 298-699, limits assumed)
T1 sequence (looked up): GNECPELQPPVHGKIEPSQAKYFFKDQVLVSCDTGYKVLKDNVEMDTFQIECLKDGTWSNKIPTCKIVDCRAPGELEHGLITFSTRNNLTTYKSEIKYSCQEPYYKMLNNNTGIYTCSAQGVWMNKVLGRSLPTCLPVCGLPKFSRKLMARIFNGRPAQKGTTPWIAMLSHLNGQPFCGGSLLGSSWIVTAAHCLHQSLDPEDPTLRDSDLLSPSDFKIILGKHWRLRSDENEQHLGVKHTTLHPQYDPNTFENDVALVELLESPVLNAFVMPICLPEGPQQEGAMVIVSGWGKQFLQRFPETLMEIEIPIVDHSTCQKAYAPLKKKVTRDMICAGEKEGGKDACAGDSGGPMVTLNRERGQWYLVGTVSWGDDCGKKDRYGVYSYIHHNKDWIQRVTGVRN

T2: fXIIa (human, UniProt P00748 20-615, limits assumed)
T2 sequence (looked up): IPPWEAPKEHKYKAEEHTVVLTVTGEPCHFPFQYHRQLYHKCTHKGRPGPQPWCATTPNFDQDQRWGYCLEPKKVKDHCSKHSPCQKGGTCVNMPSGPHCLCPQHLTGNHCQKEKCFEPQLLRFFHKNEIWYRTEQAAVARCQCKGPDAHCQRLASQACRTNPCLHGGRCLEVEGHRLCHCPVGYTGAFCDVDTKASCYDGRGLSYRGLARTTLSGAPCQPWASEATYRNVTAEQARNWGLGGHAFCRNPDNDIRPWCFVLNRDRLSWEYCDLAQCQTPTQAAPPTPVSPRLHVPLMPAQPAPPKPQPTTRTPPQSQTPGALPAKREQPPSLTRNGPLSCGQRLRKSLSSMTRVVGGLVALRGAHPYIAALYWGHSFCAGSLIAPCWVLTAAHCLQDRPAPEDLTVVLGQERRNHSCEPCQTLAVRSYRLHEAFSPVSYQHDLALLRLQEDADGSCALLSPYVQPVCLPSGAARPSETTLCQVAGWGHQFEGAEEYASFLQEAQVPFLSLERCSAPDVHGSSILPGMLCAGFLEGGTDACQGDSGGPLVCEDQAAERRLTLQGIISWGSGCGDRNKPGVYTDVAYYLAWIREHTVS


Key:
[1] = target: human MASP-2 (Homo sapiens, UniProt O00187); conditions: as disclosed in WO2018127719, read-out: inhibitory binding constant (KI) on human MASP-2, cited from earlier work
[2] = target: rat MASP-2 (Rattus norvegicus, UniProt Q9JJS8); conditions: as disclosed in WO2018127719; cited from earlier work
[3] = target: T3, human MASP-2 catalytic fragment (Homo sapiens, UniProt O00187); test: Surface plasmon resonance kinetics and affinity on immobilized human MASP-2 catalytic fragment; type: binding
T3 construct: catalytic enzyme fragments containing the three C-terminal domains: CCP1-CCP2-SP; made in house

[4] = target: T4, human MASP-2cf (Homo sapiens, UniProt O00187); test: Equilibrium inhibition constant (KI) on human MASP-2 catalytic fragment, Z-L-Lys-SBzl substrate; type: biochemical
T4 construct: catalytic enzyme fragments containing the three C-terminal domains: CCP1-CCP2-SP; made in house

[5] = target: fXIa (Homo sapiens, UniProt P03951); test: IC50 on human blood coagulation factor fXIa; type: biochemical; conditions: 3.3 nM enzyme
Experimental: The measurements were done using non-binding microtiter plates (Greiner; #655901) in 100 μL final volume. After some pilot experiments to find the proper inhibitor concentration range, the maximal inhibitor concentration was set to 20 μM for MASP-1, 10 μM for fXIa and 40 μM for fIXa and fXIIa inhibition, and twofold serial dilutions were prepared from the proteins of the present invention. To these solutions, […] to reach a previously optimized final concentration, 10 nM for MASP-1, 50 nM for fIXa, 3.3 nM for fXIa and 27.5 nM for fXIIa.
The samples were incubated for 10 minutes at room temperature. After adding the substrate (150 μM Z-Lys-S-Benzyl and 300 μM 4,4′-dithiodipyridine (DTDP) co-substrate for MASP-1; 150 μM Z-Gly-Arg-S-Benzyl and 300 μM DTDP co-substrate for fIXa; 300 μM Cbz-GPR-pNA for fXIa and 100 μM H-D-PFR-pNA for fXIIa). The reaction buffer was 50 mM Tris-HCl, 150 mM NaCl, 5 mM CaCl2), 0.1% PEG-8000 pH 7.4 for MASP-1; 20 mM HEPES, 145 mM NaCl, 0.05% Triton-X100 pH 7.4 for fIXa and fXIa; which was complemented with 5 mM CaCl2) for fXIIa.
The efficacies of the proteins of the present invention were determined in the form of (IC50) values corresponding to inhibitor concentrations that provide 50% inhibition.

[6] = target: T5, human MASP-2 (in normal human serum) (human, UniProt O00187 16-686); test: cell-based or functional assay
[7] = target: T5, human MASP-2 (in normal human serum); test: cell-based or functional assay; remark: listed apart in the source
[8] = target: rat MASP-2 (in rat serum) (rat, UniProt Q9JJS8 20-685); test: cell-based or functional assay
[9] = target: T1, MASP-1; test: cell-based or functional assay
[10] = target: fIXa (human, UniProt P00740 47-461); test: cell-based or functional assay
[11] = target: fXIa (human, UniProt P03951 19-625); test: cell-based or functional assay
[12] = target: T2, fXIIa; test: cell-based or functional assay
[13] = target: T6, human MASP-2cf CCP1-CCP2-SP (human, UniProt O00187 298-686, limits assumed); test: SPR, target immobilised
T6 construct: domain: CCP1-CCP2-SP; also called human MASP-2 catalytic fragment

[14] = target: T7, rat MASP-2cf CCP1-CCP2-SP (rat, UniProt Q9JJS8 298-685); test: SPR, target immobilised
T7 construct: range 298-685; Mw 42309 Da; also called rat MASP-2 catalytic fragment

[15] = target: T6, human MASP-2cf CCP1-CCP2-SP; test: enzyme inhibition, tight-binding fit
[16] = target: T7, rat MASP-2cf CCP1-CCP2-SP; test: enzyme inhibition, tight-binding fit

T7 sequence (Q9JJS8 other isoform, or with tags, fused parts or gaps limits assumed, form in doubt): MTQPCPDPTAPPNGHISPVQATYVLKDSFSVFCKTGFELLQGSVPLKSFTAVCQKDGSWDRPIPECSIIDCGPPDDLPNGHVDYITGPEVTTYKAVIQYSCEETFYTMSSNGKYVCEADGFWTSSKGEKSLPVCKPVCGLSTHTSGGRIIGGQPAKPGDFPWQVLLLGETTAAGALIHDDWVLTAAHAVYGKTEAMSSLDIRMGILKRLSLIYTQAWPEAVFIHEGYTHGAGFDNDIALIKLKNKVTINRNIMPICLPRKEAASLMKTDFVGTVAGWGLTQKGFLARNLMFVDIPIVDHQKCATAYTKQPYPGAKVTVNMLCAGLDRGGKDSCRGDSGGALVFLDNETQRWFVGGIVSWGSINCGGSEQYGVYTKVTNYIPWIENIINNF
fXIa (human, UniProt P03951 19-625), sequence (P03951 19-625 limits assumed): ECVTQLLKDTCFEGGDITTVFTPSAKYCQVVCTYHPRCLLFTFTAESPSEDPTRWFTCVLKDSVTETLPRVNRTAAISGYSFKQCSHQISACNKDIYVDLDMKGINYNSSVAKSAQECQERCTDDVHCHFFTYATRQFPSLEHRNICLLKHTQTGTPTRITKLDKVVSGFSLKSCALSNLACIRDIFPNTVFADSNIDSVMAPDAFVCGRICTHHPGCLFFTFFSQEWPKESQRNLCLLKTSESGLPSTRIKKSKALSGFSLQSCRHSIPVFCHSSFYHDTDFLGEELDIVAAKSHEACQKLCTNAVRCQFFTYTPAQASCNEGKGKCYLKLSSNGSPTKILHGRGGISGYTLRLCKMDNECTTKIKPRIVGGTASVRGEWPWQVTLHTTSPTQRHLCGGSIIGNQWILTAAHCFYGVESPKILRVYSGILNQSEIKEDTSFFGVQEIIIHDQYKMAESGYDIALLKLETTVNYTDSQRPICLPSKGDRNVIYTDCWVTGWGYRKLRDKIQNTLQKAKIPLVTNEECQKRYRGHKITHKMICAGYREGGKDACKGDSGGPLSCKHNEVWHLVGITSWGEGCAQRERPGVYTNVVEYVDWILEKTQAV
T6 sequence (O00187 298-686 limits assumed): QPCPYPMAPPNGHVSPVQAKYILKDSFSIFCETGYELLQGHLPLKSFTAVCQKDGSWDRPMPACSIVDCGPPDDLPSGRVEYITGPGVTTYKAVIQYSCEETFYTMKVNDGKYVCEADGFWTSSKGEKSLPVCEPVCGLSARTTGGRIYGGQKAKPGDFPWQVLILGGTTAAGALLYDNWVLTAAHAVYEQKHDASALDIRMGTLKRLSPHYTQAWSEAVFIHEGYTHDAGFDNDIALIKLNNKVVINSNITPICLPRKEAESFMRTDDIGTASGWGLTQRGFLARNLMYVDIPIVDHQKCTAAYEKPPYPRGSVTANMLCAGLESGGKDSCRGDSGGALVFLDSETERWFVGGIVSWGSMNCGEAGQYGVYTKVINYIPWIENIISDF
fIXa, sequence (P00740 47-461 limits assumed): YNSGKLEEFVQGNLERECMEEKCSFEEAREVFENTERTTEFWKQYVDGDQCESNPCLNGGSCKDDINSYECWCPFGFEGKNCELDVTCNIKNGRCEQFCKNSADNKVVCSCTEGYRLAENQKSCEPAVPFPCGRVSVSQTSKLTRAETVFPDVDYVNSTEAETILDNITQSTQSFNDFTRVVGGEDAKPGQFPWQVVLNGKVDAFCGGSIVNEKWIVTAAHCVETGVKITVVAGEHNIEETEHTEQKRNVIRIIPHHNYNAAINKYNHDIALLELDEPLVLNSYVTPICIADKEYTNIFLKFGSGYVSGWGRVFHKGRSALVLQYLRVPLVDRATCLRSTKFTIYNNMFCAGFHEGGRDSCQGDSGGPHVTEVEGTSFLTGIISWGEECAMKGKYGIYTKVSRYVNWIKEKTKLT
rat MASP-2 (in rat serum), sequence (Q9JJS8 20-685 limits assumed): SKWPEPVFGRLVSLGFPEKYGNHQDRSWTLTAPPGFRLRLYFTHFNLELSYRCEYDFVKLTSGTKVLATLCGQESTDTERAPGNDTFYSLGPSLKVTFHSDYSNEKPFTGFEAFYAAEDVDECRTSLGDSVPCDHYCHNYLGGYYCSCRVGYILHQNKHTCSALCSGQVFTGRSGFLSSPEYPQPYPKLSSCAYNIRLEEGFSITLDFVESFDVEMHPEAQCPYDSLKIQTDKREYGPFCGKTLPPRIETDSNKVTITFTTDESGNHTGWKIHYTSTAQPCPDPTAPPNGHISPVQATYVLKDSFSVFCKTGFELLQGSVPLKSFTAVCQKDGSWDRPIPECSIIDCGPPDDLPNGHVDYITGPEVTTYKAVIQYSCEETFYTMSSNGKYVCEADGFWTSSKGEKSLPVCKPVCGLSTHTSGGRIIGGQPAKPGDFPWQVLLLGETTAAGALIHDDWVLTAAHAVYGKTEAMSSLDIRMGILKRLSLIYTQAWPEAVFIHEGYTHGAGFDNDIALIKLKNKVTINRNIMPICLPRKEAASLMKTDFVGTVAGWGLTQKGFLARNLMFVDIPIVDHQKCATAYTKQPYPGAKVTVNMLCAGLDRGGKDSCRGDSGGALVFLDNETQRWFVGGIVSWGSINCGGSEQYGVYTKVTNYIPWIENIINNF
human MASP-2, sequence (O00187 16-686): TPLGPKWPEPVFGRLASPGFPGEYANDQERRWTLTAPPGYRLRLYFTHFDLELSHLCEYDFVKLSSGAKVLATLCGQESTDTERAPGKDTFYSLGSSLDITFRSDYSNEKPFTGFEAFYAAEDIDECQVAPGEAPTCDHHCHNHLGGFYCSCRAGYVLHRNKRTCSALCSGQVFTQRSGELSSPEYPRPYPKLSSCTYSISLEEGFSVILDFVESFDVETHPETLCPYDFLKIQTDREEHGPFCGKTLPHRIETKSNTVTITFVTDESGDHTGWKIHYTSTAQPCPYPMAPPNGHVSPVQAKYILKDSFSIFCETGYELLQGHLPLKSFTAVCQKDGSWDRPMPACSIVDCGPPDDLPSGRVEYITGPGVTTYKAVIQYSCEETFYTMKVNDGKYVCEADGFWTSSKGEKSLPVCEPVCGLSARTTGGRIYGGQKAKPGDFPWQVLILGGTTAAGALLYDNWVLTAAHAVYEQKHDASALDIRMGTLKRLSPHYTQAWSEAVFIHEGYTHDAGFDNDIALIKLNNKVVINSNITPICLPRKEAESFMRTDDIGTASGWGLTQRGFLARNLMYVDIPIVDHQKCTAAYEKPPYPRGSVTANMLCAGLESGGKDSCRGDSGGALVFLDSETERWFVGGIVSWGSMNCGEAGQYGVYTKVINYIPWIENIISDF
T5 sequence (O00187 16-686 limits assumed): as the sequence (O00187 16-686) above
rat MASP-2, sequence (Q9JJS8 20-685): as the sequence (Q9JJS8 20-685 limits assumed) above
fXIa (Homo sapiens, UniProt P03951), sequence (P03951 388-625 limits assumed): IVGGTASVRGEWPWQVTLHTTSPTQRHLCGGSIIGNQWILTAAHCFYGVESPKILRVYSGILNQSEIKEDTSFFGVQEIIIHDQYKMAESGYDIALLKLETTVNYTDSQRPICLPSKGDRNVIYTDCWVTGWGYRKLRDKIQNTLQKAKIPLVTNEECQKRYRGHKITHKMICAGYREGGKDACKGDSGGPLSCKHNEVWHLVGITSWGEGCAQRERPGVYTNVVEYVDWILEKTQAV
fXIa (Homo sapiens, UniProt P03951), sequence (P03951 19-387 partner limits assumed): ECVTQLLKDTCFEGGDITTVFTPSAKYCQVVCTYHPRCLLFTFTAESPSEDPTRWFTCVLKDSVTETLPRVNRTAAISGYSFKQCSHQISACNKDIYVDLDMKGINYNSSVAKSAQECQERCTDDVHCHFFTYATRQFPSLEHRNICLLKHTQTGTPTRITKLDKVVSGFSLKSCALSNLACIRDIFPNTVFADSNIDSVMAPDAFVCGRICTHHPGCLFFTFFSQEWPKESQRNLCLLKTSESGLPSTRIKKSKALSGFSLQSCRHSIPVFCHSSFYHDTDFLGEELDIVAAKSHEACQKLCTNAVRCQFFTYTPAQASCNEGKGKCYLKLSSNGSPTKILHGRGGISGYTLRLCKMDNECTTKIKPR

Molecule | IC50, lectin pathway C4 deposition, human serum [7] [nM] | Relative potency, lectin pathway, human serum [7] [fold vs EVO2] | IC50, lectin pathway C4 deposition, rat serum [8] [nM] | Relative potency, lectin pathway, rat serum [8] [fold vs EVO2] | IC50, enzyme activity on synthetic substrate [9] [nM] | IC50, enzyme activity on synthetic substrate [10] [nM] | IC50, enzyme activity on synthetic substrate [11] [nM] | IC50, enzyme activity on synthetic substrate [12] [nM] | Kd [13] [nM] | Relative affinity [13] [fold vs EVO2] | koff [13] [s⁻¹] | kon [13] [M⁻¹ s⁻¹] | Kd [14] [nM] | Relative affinity [14] [fold vs EVO2] | koff [14] [s⁻¹] | kon [14] [M⁻¹ s⁻¹] | further results
KPDFCFLEEDPGPCRAVKRRYFYNNQTKQCERFKYGGCLGNMNNFETLEECKNICEDG (disulfide 5-55, 14-38, 30-51) [EVO2] |  |  |  |  |  |  |  |  |  |  |  |  |  |  |  |  | Ki ([1]; listed as WO2018127719 with SEQ ID NO: 14): 7.9 nM; Ki [1]: ~7 nM; Ki [2]: ~7 nM
KPDFCFLENDPGLCRAAAVRYFYNNQTKQCERFYYGGCLGNMNNFVTLEECKNICEDG (disulfide 5-55, 14-38, 30-51) [EVO222] |  |  |  |  |  |  |  |  |  |  |  |  |  |  |  |  | Kd [3]: 0.045 nM
KPDFCFLENDPGPCRAAAVRYFYNNQTKQCERFYYGGCLGNMNNFVTLEECKNICEDG (disulfide 5-55, 14-38, 30-51) [EVO223] |  |  |  |  |  |  |  |  |  |  |  |  |  |  |  |  | Ki ([4]; 5 nM enzyme, read-out: KI values human MASP-2cf): 0.17 ± 0.07 nM
KPDFCFLENDPGPCRAAKRRYFYNNQTKQCERFYYGGCLGNMNNFVTLEECKNICEDG (disulfide 5-55, 14-38, 30-51) [EVO22a] |  |  |  |  |  |  |  |  |  |  |  |  |  |  |  |  | Kd ([3]; Human MASP-2 catalytic fragment, SPR, read-out: KD): 0.045 nM
KPDFCFLENDPGPCRALKRRYFYNNQTKQCERFYYGGCFGNMNNFETLEECKNICEDG (disulfide 5-55, 14-38, 30-51) [EVO25] |  |  |  |  |  |  |  |  |  |  |  |  |  |  |  |  | Ki [4]: 0.17 ± 0.04 nM
KPDFCFLENDPGPCRALKRRYFYNNQTKQCERFYYGGCFGNMNNFVTLEECKNICEDG (disulfide 5-55, 14-38, 30-51) [EVO23] |  |  |  |  |  |  |  |  |  |  |  |  |  |  |  |  | IC50 [5]: 500 nM
KPDFCFLENDPGPCRALKRRYFYNNQTKQCERFYYGGCLGNMNNFETLEECKNICEDG (disulfide 5-55, 14-38, 30-51) [EVO24] |  |  |  |  |  |  |  |  |  |  |  |  |  |  |  |  | IC50 [5]: 500 nM
SEQ ID NO: 11 in WO2018127719: highest efficiency human MASP-2 inhibiting Kunitz domain compound of WO2018127719, canonical inhibitory loop sequence GFCRAVKR (KPDFCFLENDPGPCRALKRRYFYNNQTKQCERFYYGGCFGNMNNFETLEECKNICEDG) |  |  |  |  |  |  |  |  |  |  |  |  |  |  |  |  | Ki [1]: 2 nM; Ki [2]: 640 nM
EVO21 (designed binder, not fully specified; ends and bridges not checked, Modified TFPI-D2 Kunitz domain; made as m1) KPDFCFLENDPGPCRALKRRYFYNNQTKQCERFGYGGCLGNMNNFVTLEECKNICEDG | 5.7 | 24.1 | 10.9 | 9.8 | 13000 | 28000 | 800 | 10500 | 0.037 | 48 | 4.92e-05 | 1.32e+06 | 0.082 | 44.1 | 4.49e-05 | 545000 | Relative potency (relative human lectin pathway inhibitory efficiency compared to EVO2) [6]: 24 fold relative to EVO2
EVO214 (designed binder, not fully specified; ends and bridges not checked, Modified TFPI-D2 Kunitz domain; made as m1) KPDFCFLENDPGPCRALKLRYFYNNQTKQCERFGYGGCLGNMNNFVTLEECKNICEDG | 4.3 | 32.4 | 11.2 | 9.5 | 9600 | 24000 | 200 | 3700 | 0.038 | 47.6 | 4.78e-05 | 1.27e+06 | 0.117 | 31 | 7.19e-05 | 614000 | 
EVO23 (designed binder, not fully specified; cysteine pairing not given here, Modified TFPI-D2 Kunitz domain; made as m1) KPDFCFLENDPGPCRALKRRYFYNNQTKQCERFYYGGCFGNMNNFVTLEECKNICEDG | 2.9 | 47.1 | 8.1 | 13.1 | 6500 | 2600 | 500 | 3300 | 0.094 | 19.1 | 0.000197 | 2.1e+06 | 0.674 | 5.4 | 0.000662 | 982000 | 
EVO24 (designed binder, not fully specified; cysteine pairing not given here, Modified TFPI-D2 Kunitz domain; made as m1) KPDFCFLENDPGPCRALKRRYFYNNQTKQCERFYYGGCLGNMNNFETLEECKNICEDG | 7.6 | 18.1 | 6.6 | 16.2 | 9500 | 123000 | 500 | 16100 | 0.276 | 6.5 | 0.000622 | 2.25e+06 | 0.289 | 12.6 | 0.000327 | 1.13e+06 | Ki [15]: 0.34 nM; Ki [16]: 0.36 nM
